# Results reported in IntAct's records for PubMed 31142615.
# B1: E3 ubiquitin-protein ligase MARCHF2 (Homo sapiens), Q9P0N8 (parent)
# chain: MTTGDCCHLPGSLCDCSGSPAFSKVVEATGLGPPQYVAQVTSRDGRLLSTVIRALDTPSDGPFCRICHEGANGECLLSPCGCTGTLGAVHKSCLEKWLSSSNTSYCELCHTEFAVEKRPRPLTEWLKDPGPRTEKRTLCCDMVCFLFITPLAAISGWLCLRGAQDHLRLHSQLEAVGLIALTIALFTIYVLWTLVSFRYHCQLYSEWRKTNQKVRLKIREADSPEGPQHSPLAAGLLKKVAEETPV
# Variants of: B1
# Settings: with ergi3_human ERGIC3, Q9Y282
# Chain of ergi3_human ERGIC3, Q9Y282 (Q9Y282 whole entry): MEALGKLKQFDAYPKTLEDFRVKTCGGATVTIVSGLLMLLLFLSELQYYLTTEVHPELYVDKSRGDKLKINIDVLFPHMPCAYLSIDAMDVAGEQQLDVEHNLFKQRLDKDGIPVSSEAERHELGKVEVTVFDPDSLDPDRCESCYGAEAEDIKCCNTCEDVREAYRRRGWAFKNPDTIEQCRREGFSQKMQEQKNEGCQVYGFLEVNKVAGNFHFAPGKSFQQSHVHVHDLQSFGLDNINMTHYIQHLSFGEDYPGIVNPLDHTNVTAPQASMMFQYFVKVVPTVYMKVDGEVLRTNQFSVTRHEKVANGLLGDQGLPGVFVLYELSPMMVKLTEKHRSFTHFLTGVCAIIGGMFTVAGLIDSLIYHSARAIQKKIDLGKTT
row,effect of a mutation on the interaction,Variant
1,decreasing interaction strength,C64S;C67S

# Variants of: B1
# Settings: with ergi3_human ERGIC3, Q9Y282
# Remark: another data set of the same source
row,effect of a mutation on the interaction,Variant
1,with no effect,C64S;C67S

# Variants of: B1
# Settings: with ergi3_human ERGIC3, Q9Y282
# Remark: another data set of the same source
row,effect of a mutation on the interaction,Variant
1,causing an interaction,C64S;C67S
